Measurements from patent US20250145723A1 (MINGHUI PHARMACEUTICAL HANGZHOU, published 2025).

Each binder was assayed against T1, recombinant human IGF-1R-his (human, UniProt P08069 31-932) (assay: ELISA, coated hIGF-1R-his).
T1 construct: Recombinant his-tagged protein; also called hIGF-1R-his; hIGF1R-his; not shown: his tag
Method: The binding activity of the nanobody-Fc fusion proteins obtained after two rounds of mutant construction with the antigen proteins (recombinant human IGF-1R-His) was detected by an ELISA method: 2 μg/mL recombinant human IGF1R-His antigen proteins were added to a 96-well ELISA plate, at 30 μL/well, for coating overnight at 4° C. The plate was washed three times with PBST. PBS containing 5% skim milk powder was added for blocking at room temperature for 2 h. The plate was washed three times with PBST. The nanobody-Fc fusion proteins were serially diluted 3-fold, and the nanobody-Fc fusion proteins of different concentrations were added to each well at 30 μL/well and incubated at room temperature for 1 h. The plate was washed three times with PBST, and horseradish peroxidase-labeled anti-human Fc antibodies were added at 30 μL/well and incubated at room temperature for 50 min. The plate was washed three times with PBST. TMB substrate solution was added at 30 μL/well for color development in the dark for 1-5 min, 30 μL of 2 M hydrochloric acid was added to terminate the reaction, and the OD₄₅₀ was read using a microplate reader. Curve fitting was conducted and the EC₅₀ value was calculated using Graphpad Prism software.

T1 sequence (P08069 31-932 limits assumed): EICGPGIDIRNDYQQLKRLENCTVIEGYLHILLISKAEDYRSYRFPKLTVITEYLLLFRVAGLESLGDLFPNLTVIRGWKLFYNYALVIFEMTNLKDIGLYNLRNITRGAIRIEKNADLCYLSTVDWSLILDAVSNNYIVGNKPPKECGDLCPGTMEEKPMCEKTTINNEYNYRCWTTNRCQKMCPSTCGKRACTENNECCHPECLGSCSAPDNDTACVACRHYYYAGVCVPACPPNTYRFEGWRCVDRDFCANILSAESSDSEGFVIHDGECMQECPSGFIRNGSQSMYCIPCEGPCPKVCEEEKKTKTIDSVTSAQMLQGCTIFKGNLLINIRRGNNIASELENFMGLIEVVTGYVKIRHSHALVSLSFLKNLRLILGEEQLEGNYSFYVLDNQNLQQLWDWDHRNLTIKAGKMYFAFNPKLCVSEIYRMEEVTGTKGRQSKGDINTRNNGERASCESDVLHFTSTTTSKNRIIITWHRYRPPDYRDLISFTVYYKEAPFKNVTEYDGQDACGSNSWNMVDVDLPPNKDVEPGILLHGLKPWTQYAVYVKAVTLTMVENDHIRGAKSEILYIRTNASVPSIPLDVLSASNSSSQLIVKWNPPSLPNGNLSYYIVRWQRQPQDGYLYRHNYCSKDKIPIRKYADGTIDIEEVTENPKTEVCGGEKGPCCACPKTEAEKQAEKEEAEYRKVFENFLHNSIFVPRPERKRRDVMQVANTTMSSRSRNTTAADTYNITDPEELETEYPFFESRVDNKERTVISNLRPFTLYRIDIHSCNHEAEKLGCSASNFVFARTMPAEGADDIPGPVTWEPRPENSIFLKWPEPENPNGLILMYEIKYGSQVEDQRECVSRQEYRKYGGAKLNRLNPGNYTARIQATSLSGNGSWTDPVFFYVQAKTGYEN

| EC50 | Binder |
| --- | --- |
| 6.24 ng/mL | 5115-H4-M34-4-Fc (Fc fusion, VHH-Fc; Fc not specified; not shown: Fc) EVQLVESGGGLVQPGGSLRLSCAASGGTFSSFVMAWFRQAPGKGLEFVSAISGFGSRARYADSVKGRFTISRDNSKNTLYLQMNSLRAEDTAVYYCAANPRRATPDLTQYAYWGQGTLVTVSS |
| 4.05 ng/mL | 5115-H4-M34-9-Fc (Fc fusion, VHH-Fc; Fc not specified; not shown: Fc) EVQLVESGGGLVQPGGSLRLSCAASGPAFSSFVMAWFRQAPGKGLEFVSAISGSGSRARYADSVKGRFTISRDNSKNTLYLQMNSLRAEDTAVYYCAANPRRATPDLTQYAYWGQGTLVTVSS |
| 3.33 ng/mL | 5115-H4-M34-12-Fc (Fc fusion, VHH-Fc; Fc not specified; not shown: Fc) EVQLVESGGGLVQPGGSLRLSCAASGRPFSSFVMAWFRQAPGKGLEFVSAISGSGSRARYADSVKGRFTISRDNSKNTLYLQMNSLRAEDTAVYYCAANPRYATPDLTQYAYWGQGTLVTVSS |
| 2.15 ng/mL | 5115-H4-M34-5-Fc (Fc fusion, VHH-Fc; Fc not specified; not shown: Fc) EVQLVESGGGLVQPGGSLRLSCAASMTTFSSFVMAWFRQAPGKGLEFVSAISGHGSRARYADSVKGRFTISRDNSKNTLYLQMNSLRAEDTAVYYCAANPRRATPDLTQYAYWGQGTLVTVSS |
| 2.33 ng/mL | 5115-H4-M34-11-Fc (Fc fusion, VHH-Fc; Fc not specified; not shown: Fc) EVQLVESGGGLVQPGGSLRLSCAASTRTFSSFVMAWFRQAPGKGLEFVSAISGSGSRARYADSVKGRFTISRDNSKNTLYLQMNSLRAEDTAVYYCAANPRRATPDLTQYAYWGQGTLVTVSS |
| 3.79 ng/mL | 5115-H4-M34-8-Fc (Fc fusion, VHH-Fc; Fc not specified; not shown: Fc) EVQLVESGGGLVQPGGSLRLSCAASGRTFSTFVMAWFRQAPGKGLEFVSAISGSGSRSRYADSVKGRFTISRDNSKNTLYLQMNSLRAEDTAVYYCAANPRRATPDLTQYAYWGQGTLVTVSS |
| 5.36 ng/mL | 5115-H4-M34-7-Fc (Fc fusion, VHH-Fc; Fc not specified; not shown: Fc) EVQLVESGGGLVQPGGSLRLSCAASGRTFSSFVMAWFRQAPGKGLEFVSAISGSGRQARYADSVKGRFTISRDNSKNTLYLQMNSLRAEDTAVYYCAANPRRATPDLSRYAYWGQGTLVTVSS |
| 3.28 ng/mL | 5115-H4-M34-14-Fc (Fc fusion, VHH-Fc; Fc not specified; not shown: Fc) EVQLVESGGGLVQPGGSLRLSCAASRGTFSSFVMAWFRQAPGKGLEFVSAISGSGKVARYADSVKGRFTISRDNSKNTLYLQMNSLRAEDTAVYYCAANPRRATPDLTQYAYWGQGTLVTVSS |
| 3.64 ng/mL | 5115-H4-M34-3-Fc (Fc fusion, VHH-Fc; Fc not specified; not shown: Fc) EVQLVESGGGLVQPGGSLRLSCAASGGTFSSFVMAWFRQAPGKGLEFVSAISGSGSRARYADSVKGRFTISRDNSKNTLYLQMNSLRAEDTAVYYCAANPRRATPDLTQYKYWGQGTLVTVSS |

Further lines, the binder ahead of its results:

| Binder | EC50 |
| --- | --- |
| 5115-H1-M28-Fc (Fc fusion, VHH-Fc; Fc not specified; not shown: Fc) EVQLVESGGGLVQPGGSLRLSCAASGRTFSSFVMSWFRQAPGKEREFVSAISGSGSRYRYADSVKGRFTISRDNSKNTLYLQMNSLRAEDTAVYYCAANPRRATPDLKQYAYWGQGTLVTVSS | 1.18 ng/mL |
| 5115-H1-M35-Fc (Fc fusion, VHH-Fc; Fc not specified; not shown: Fc) EVQLVESGGGLVQPGGSLRLSCAASGRTFSSFVMSWFRQAPGKEREFVSAISGSGSRALYADSVKGRFTISRDNSKNTLYLQMNSLRAEDTAVYYCAANPRRATPDLRQYAYWGQGTLVTVSS | 1.47 ng/mL |
| 5115-H1-M29-Fc (Fc fusion, VHH-Fc; Fc not specified; not shown: Fc) EVQLVESGGGLVQPGGSLRLSCAASGRTFSSFVMSWFRQAPGKEREFVSAISGSGSRAYYADSVKGRFTISRDNSKNTLYLQMNSLRAEDTAVYYCAANPRRATPDLRQYAYWGQGTLVTVSS | 1.62 ng/mL |
| 5115-H1-M34-Fc (Fc fusion, VHH-Fc; Fc not specified; not shown: Fc) EVQLVESGGGLVQPGGSLRLSCAASGRTFSSFVMSWFRQAPGKEREFVSAISGSGSRMRYADSVKGRFTISRDNSKNTLYLQMNSLRAEDTAVYYCAANPRRATPDMRQYAYWGQGTLVTVSS | 2.05 ng/mL |
| 5115-H1-M31-Fc (Fc fusion, VHH-Fc; Fc not specified; not shown: Fc) EVQLVESGGGLVQPGGSLRLSCAASGRTFSSFVMSWFRQAPGKEREFVSAISGSGSRARYADSVKGRFTISRDNSKNTLYLQMNSLRAEDTAVYYCAANPRRATPDMRQYAYWGQGTLVTVSS | 1.84 ng/mL |
| 5115-H1-M40-Fc (Fc fusion, VHH-Fc; Fc not specified; not shown: Fc) EVQLVESGGGLVQPGGSLRLSCAASGRTFSSFVMSWFRQAPGKEREFVSAISGSGSRQRYADSVKGRFTISRDNSKNTLYLQMNSLRAEDTAVYYCAANPRRATPDLRQYAYWGQGTLVTVSS | 1.23 ng/mL |
| 5115-H4-M28-Fc (Fc fusion, VHH-Fc; Fc not specified; not shown: Fc) EVQLVESGGGLVQPGGSLRLSCAASGRTFSSFVMSWFRQAPGKGLEFVSAISGGGSRAYYADSVKGRFAISRDNSKNTLYLQMNSLRAEDTAVYYCAANPRRATPDLRQYAYWGQGTLVTVSS | 299 pM |
| 5115-H1-M30-Fc (Fc fusion, VHH-Fc; Fc not specified; not shown: Fc) EVQLVESGGGLVQPGGSLRLSCAASGARFSSFVMSWFRQAPGKEREFVSAISGSGSRHRYADSVKGRFTISRDNSKNTLYLQMNSLRAEDTAVYYCAANPRRATPDYTQYAYWGQGTLVTVSS | 2.45 ng/mL |
| 5115-H1-M33-Fc (Fc fusion, VHH-Fc; Fc not specified; not shown: Fc) EVQLVESGGGLVQPGGSLRLSCAASMPTFSSFVMSWFRQAPGKEREFVSAISGSGSRSRYADSVKGRFTISRDNSKNTLYLQMNSLRAEDTAVYYCAANPRRATPDYTQYAYWGQGTLVTVSS | 1.15 ng/mL |
| 5115-H4-M25-Fc (Fc fusion, VHH-Fc; Fc not specified; not shown: Fc) EVQLVESGGGLVQPGGSLRLSCAASGVTFSSFVMSWFRQAPGKGLEFVSAISGSGSRALYADSVKGRFTISRDNSKNTLYLQMNSLRAEDTAVYYCAANPRRATPDLTQYAYWGQGTLVTVSS | 215 pM |
| 5115-H4-M34-1-Fc (Fc fusion, VHH-Fc; Fc not specified; not shown: Fc) EVQLVESGGGLVQPGGSLRLSCAASGRTFNRFVMAWFRQAPGKGLEFVSAISGSGQRARYADSVKGRFTISRDNSKNTLYLQMNSLRAEDTAVYYCAANPRRATPDLTQYAYWGQGTLVTVSS | 3.92 ng/mL |
| 5115-H1-M39-Fc (Fc fusion, VHH-Fc; Fc not specified; not shown: Fc) EVQLVESGGGLVQPGGSLRLSCAASGRTFSSFVMSWFRQAPGKEREFVSAISGSGSRFRYADSVKGRFTISRDNSKNTLYLQMNSLRAEDTAVYYCAANPRRATPDLQQYAYWGQGTLVTVSS | 1.06 ng/mL |
| 5115-H4-M3-Fc (Fc fusion, VHH-Fc; Fc not specified; not shown: Fc) EVQLVESGGGLVQPGGSLRLSCAASGRTFSSFVMAWFRQAPGKGLEFVSAISGSGSRARYADSVKGRFTISRDNSKNTLYLQMNSLRAEDTAVYYCAANPRRATPDYTQYAYWGQGTLVTVSS | 330 pM |
| 5115-H1-M36-Fc (Fc fusion, VHH-Fc; Fc not specified; not shown: Fc) EVQLVESGGGLVQPGGSLRLSCAASGRTFPSFVMSWFRQAPGKEREFVSAISGSGSRAYYADSVKGRFTISRDNSKNTLYLQMNSLRAEDTAVYYCAANPRRATPDLRQYAYWGQGTLVTVSS | 1.43 ng/mL |
| 5115-H1-M32-Fc (Fc fusion, VHH-Fc; Fc not specified; not shown: Fc) EVQLVESGGGLVQPGGSLRLSCAASGRARSSFVMSWFRQAPGKEREFVSAISGSGSRVRYADSVKGRFTISRDNSKNTLYLQMNSLRAEDTAVYYCAANPRRATPDYTQYAYWGQGTLVTVSS | 1.58 ng/mL |
